From US11299526B2, “p53-BAD fusion proteins” (University of Utah Research Foundation, priority 2018, dated 2022)
“Also recorded” adds a separate entry of the source.

B1: Bad/112,136: Bad with S112A and S136A mutations (SEQ ID NO:2), no p53, negative control (protein)
chain: MFQIPEFEPSEQEDSSSAERGLGPSPAGDGPSGSGKHHRQAPGLLWDASHQQEQPTSSSHHGGAGAVEIRSRHSAYPAGTEDDEGMGEEPSPFRGRSRAAPPNLWAAQRYGRELRRMSDEFVDSFKKGLPRPKSAGTATQMRQSSSWTRVFQSWWDRNLGRGSSAPSQ
modifications: mutated BAD peptide
B2: Bad: EGFP-tagged human Bad without p53 (SEQ ID NO:1), negative control (protein, UniProt Q92934 1-168, looked up)
Bcl2-associated agonist of …: MFQIPEFEPSEQEDSSSAERGLGPSPAGDGPSGSGKHHRQAPGLLWDASHQQEQPTSSSHHGGAGAVEIRSRHSSYPAGTEDDEGMGEEPSPFRGRSRSAPPNLWAAQRYGRELRRMSDEFVDSFKKGLPRPKSAGTATQMRQSSSWTRVFQSWWDRNLGRGSSAPSQ
modifications: EGFP tag

How the values were obtained:
OVCAR-3 cells [1] = conditions: cited from earlier work
Kuramochi cells [2] = experiment: Paclitaxel cell viability assay; format: cell-based; conditions: Homo sapiens, 48 hr
Procedure: Paclitaxel powder (LC Laboratories; Wobum, Mass.) was dissolved in DMSO to 10 mg/mL to make a stock solution. To determine the paclitaxel IC50 in Kuramochi cells, 8×10^3 Kuramochi cells were seeded in 96-well plates 24 hr prior to drug treatment. Paclitaxel in complete growth medium was added at increasing concentrations, and the cells were incubated for 48 hr. The Aqueous One Cell Proliferation Assay (Promega) was used to assess cell viability. For gene transfection and paclitaxel combination treatment, the cells were transfected first. 4 hr after transfection, paclitaxel was added at 100 nM or 200 nM, and the cells were incubated for 48 hr as previously optimized by our lab.
After confirming the high apoptotic potential of p53-Bad/112,136, we wanted to test the possibility of combining p53-Bad/112,136 gene therapy with paclitaxel, a standard-of-care for HGSC. Based on a genomic and gene expression profile study with 47 ovarian cancer cell lines, Kuramochi was identified to be the best model for high grade serous ovarian cancer, with the highest genetic similarity to ovarian tumors. The IC50 of paclitaxel was determined using a cell viability […] assay. Kuramochi cells were incubated with different paclitaxel concentrations ranging from 0 nM to 1000 nM for 48 hr. The IC50 value was determined to be approximately 100 nM. […]

[3] = Preliminary toxicity study, IP injected polymer and polymer-Ad; conditions: mouse, in vivo
SKOV-3 cells [4] = experiment: Mitochondrial localization of EGFP-tagged constructs, fluorescence microscopy with PCC analysis; format: cell-based, human; conditions: mitochondria stained with MitoTracker Red, CMV promoter
Procedure: (§1) Images of p53-BH3 (EGFP tagged on N-terminus) can be acquired 18 h post-transfection with an Olympus IX71F fluorescence microscope with a F-View Monochrome CCD camera and analyzed with ImageJ using Pearson's correlation coefficient (PCC) and post Costes' algorithm. PCC≥0.6 are considered to be colocalized. […] Apoptosis assay: 7-AAD assay (measuring late-stage apoptosis) can be performed as done before as an initial screen. As before, cells can be stained with […] working solution of 7-aminoactinomycin D (7-AAD) 24 hr post-transfection. Cells can be analyzed and gated for EGFP with the same fluorescence intensity to ensure equal detection of proteins
24 hr post-transfection, cells were stained in PBS solution containing 200 nM MitoTracker Red CM-H2Xros (Thermo Scientific), 1:100 dilution of ProLong Live Antifade Reagent (Thermo Scientific), and 2 μM Hoechst stain. The cells were incubated for 20 minutes protected from light. Images were acquired using a Nikon AIR fluorescence confocal microscope with 60× Plan Apo Oil immersion objective (core facility, University of Utah). The images were visualized using NIS element software with built in EGFP, MitoTracker Red, and DAPI filters. Co-localization analyses were performed using the JACoP plugin for ImageJ software. […] The experiments were performed three times with 10 cells analyzed each experiment for a total of 30 cells per gene constructs.

p53-Luc Cis-Reporter = experiment: Nuclear transcriptional activity p53 luciferase reporter gene assay; format: cell-based; conditions: SKOV-3, OVCAR-3, ID8 and Kuramochi cells, 24 hr post-transfection
Procedure: All constructs (3.5 μg of DNA) were co-transfected with 3.5 μg of p53-Luc Cis-reporter plasmid encoding a firefly luciferase gene (Agilent Technologies; Santa Clara, Calif.) and 0.35 μg of pRL-SV40 plasmid encoding a Renilla luciferase gene (Promega; Madison, Wis.). Renilla luciferase was used to normalize for transfection efficiency in respective cell lines. The Dual-Glo Luciferase Assay System (Promega) was used to determine the firefly luciferase activity and Renilla luciferase activity per manufacturer's recommendation 24 hr post-transfection as before. The luminescence signal was detected using the Infinite M1000 microplate reader (Tecan; Männedorf, Switzerland). The Dual-Glo luciferase assay was performed in triplicate.

Kuramochi cells [5] = experiment: 7-AAD assay of constructs combined with paclitaxel; format: cell-based, human; conditions: paclitaxel 100 nM or 200 nM added 4 hr after transfection, 48 hr
Procedure: The IC50 of paclitaxel was determined using a cell viability MTT assay. Kuramochi cells were incubated with different paclitaxel concentrations ranging from 0 nM to 1000 nM for 48 hr. […] A control group without paclitaxel (0 nM) was also included. The cells were incubated for 48 hr before the 7-AAD assay.

OVCAR-3 cells [6] = experiment: TMRE mitochondrial depolarization (MOMP) assay; format: cell-based, human; conditions: OVCAR-3, 20 hr post-transfection
Text: […] Flow cytometry can be used to analyze […] cells using the PE-A channel (excitation at 561 nm with emission at 585/15). Loss in TMRE intensity represents mitochondrial depolarization, which correlates to mitochondrial outer membrane permeabilization (MOMP). […] Bad alone constructs may have some activity, but may be weaker or slower acting than p53-Bad constructs. This underscores the importance of using apoptotic, cell death, proliferation, and oncogenic assays to paint a complete picture of construct potency/efficacy.
(§2) […] Cells were incubated for 30 minutes at 37° C. then analyzed using flow cytometry (FACS-Canto-II with FACS Diva software, core facility, University of Utah) as described before. EGFP was excited at 488 nm with emission filter 530/35, and TMRE was excited at 561 nm with emission filter 585/15. The loss in TMRE intensity indicates mitochondrial depolarization, which correlates with an increase in the permeabilization of the mitochondrial outer membrane (MOMP). Each construct was transfected independently and tested in triplicates (n=3). The lowest MOMP value was set as 0%, and the highest MOMP value as 100% as before.

ID8 cells = experiment: 7-AAD late apoptosis/cell death assay; format: cell-based, mouse; conditions: ID8, 24 hr post-transfection
Procedure: as §1
(§3) 7-AAD assay was performed as before (14, 15). Briefly, the cells were collected 24 hr post-transfection. The cell pellets were resuspended in 300 μL of 1.25 μg/mL 7-AAD in PBS. The cells were incubated on ice for 20 minutes, and analyzed using FACS-Canto-II similar to the TMRE assay. The cells were gated for EGFP positive (excitation at 480 nm and emission at 535 nm) and 7-AAD positive (excitation at 496 nm and emission at 785 nm). The constructs were assayed in triplicates. The lowest and highest values were set at 0% and 100%, respectively (relative 7-AAD) as before (14).

SKOV-3 cells [7] = experiment: 7-AAD late apoptosis/cell death assay; format: cell-based, human; conditions: SKOV-3, 24 hr post-transfection
Procedure: as §1, §3

[8] = test system: SKOV-3, OVCAR-3, ID8 and Kuramochi cells; experiment: TMRE mitochondrial depolarization (MOMP) assay, statements for the four ovarian cancer cell lines; format: cell-based, human, mouse; conditions: four cell lines of FIG. 17, 20 hr post-transfection
Procedure: as §2

[9] = test system: SKOV-3, OVCAR-3, ID8 and Kuramochi cells; experiment: 7-AAD late apoptosis/cell death assay, statements for all four ovarian cancer cell lines; format: cell-based, human, mouse; conditions: 24 hr post-transfection
Procedure: as §3

Molecule	subcellular localization of EGFP-tagged construct (SKOV-3 cells [4])	nuclear transcriptional activity (firefly luciferase) (p53-Luc Cis-Reporter)	mitochondrial depolarization / % MOMP induction (TMRE) (OVCAR-3 cells [6])	apoptosis / cell death (7-AAD) (ID8 cells)	apoptosis / cell death (7-AAD) (SKOV-3 cells [7])	mitochondrial depolarization / % MOMP induction (TMRE) [8]	apoptosis / cell death (7-AAD) [9]	also measured
CN(C)CC[C@H](CSc1ccccc1)Nc1ccc(S(=O)(=O)NC(=O)c2ccc(N3CCN(Cc4ccccc4-c4ccc(Cl)cc4)CC3)cc2)cc1[N+](=O)[O-] [ABT-737]								IC50 (OVCAR-3 cells [1]): 10 ± 4 µM
CC(=O)O[C@H]1C(=O)[C@@]2(C)[C@H]([C@H](OC(=O)c3ccccc3)[C@]3(O)C[C@H](OC(=O)[C@H](O)[C@@H](NC(=O)c4ccccc4)c4ccccc4)C(C)=C1C3(C)C)[C@]1(OC(C)=O)CO[C@@H]1C[C@@H]2O [paclitaxel]								IC50 (Kuramochi cells [2]): ~0.1 µM
poly (cystaminebisacryl-amide-diaminohexane)-polyethylene glycol linked to RGD (Arg-Gly-Asp) [polymer alone]								immunogenicity at injection site [3]: no swelling, inflammation, or redness at injection site
B1	mitochondrial localization; also recorded: effectively localize to the mitochondria	do not activate firefly luciferase	some activity	inactive	inactive	significant level of % MOMP	comparable to EGFP (negative control) except in OVCAR-3 cells; also recorded: apoptotic activity diminishes	effect of added paclitaxel on the activity of the construct (7-AAD) (Kuramochi cells [5]): does not seem to increase; effect of deleting the BH3 domain of Bad on activity (TMRE) (OVCAR-3 cells [6]; FIG. 20): significantly reduces the activity
B2	found in the cytoplasm	do not activate firefly luciferase	some activity	inactive	inactive	significant level of % MOMP	comparable to EGFP (negative control) except in OVCAR-3 cells; also recorded: apoptotic activity diminishes	
